Reference: ChEMBL document CHEMBL1148343, “Fragment-based drug discovery” (J Med Chem, 2004)

Substrate: Nc1nc(=O)c2c([nH]1)NCC1CN(c3ccc(C(=O)N[C@@H](CCC(=O)O)C(=O)O)cc3)CN21
Test: Michaelis-Menten constant (Km) against thymidylate synthase

B1: Thymidylate synthase (Lactobacillus casei), P00469 (protein)
chain: MLEQPYLDLAKKVLDEGHFKPDRTHTGTYSIFGHQMRFDLSKGFPLLTTKKVPFGLIKSELLWFLHGDTNIRFLLQHRNHIWDEWAFEKWVKSDEYHGPDMTDFGHRSQKDPEFAAVYHEEMAKFDDRVLHDDAFAAKYGDLGLVYGSQWRAWHTSKGDTIDQLGDVIEQIKTHPYSRRLIVSAWNPEDVPTMALPPCHTLYQFYVNDGKLSLQLYQRSADIFLGVPFNIASYALLTHLVAHECGLEVGEFIHTFGDAHLYVNHLDQIKEQLSRTPRPAPTLQLNPDKHDIFDFDMKDIKLLNYDPYPAIKAPVAV
Km: 14 µM
